We go through 1 molecule from paper PMC5501724, “Structural Basis for Specific Interaction of TGFβ Signaling Regulators SARA/Endofin with HD-PTP” (Structure(London, England:1993), 2017).

What all share (experiment): SPR equilibrium, peptide analyte
For one experiment, the target named is T1, CHMP4A (Homo sapiens (Human), UniProt Q9BY43).
T1 chain: PKVDEDEEALKQLAEWVS

In the next experiment the target is T2, CHMP4C (Homo sapiens (Human), UniProt Q96CF2).
T2 chain: QRAEEEDDDIKQLAAWAT

The target in the next experiment is T3, CHMP4B (Homo sapiens (Human), UniProt Q9H444).
T3 chain: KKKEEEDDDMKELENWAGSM

B1: HDPTP_Bro1 (protein)
chain: MEAVPRMPMIWLDLKEAGDFHFQPAVKKFVLKNYGENPEAYNEELKKLELLRQNAVRVPRDFEGCSVLRKYLGQLHYLQSRVPMGSGQEAAVPVTWTEIFSGKSVAHEDIKYEQACILYNLGALHSMLGAMDKRVSEEGMKVSCTHFQCAAGAFAYLREHFPQAYSVDMSRQILTLNVNLMLGQAQECLLEKSMLDNRKSFLVARISAQVVDYYKEACRALENPDTASLLGRIQKDWKKLVQMKIYYFAAVAHLHMGKQAEEQQKFGERVAYFQSALDKLNEAIKLAKGQPDTVQDALRFTMDVIGGKYNSAKKDNDFIYHEAVPALDTLQPVKGAPLVKPLPVNPTDPAVTGPDIFAKLV
On to B1, for which the equilibrium dissociation constant (Kd) – broadly, a measure of binding affinity in units of concentration – with CHMP4A was 132 µM; in the experiment with CHMP4C it was 88 µM; in the experiment with CHMP4B, 85 µM.
